According to article PMC3161980:
Values joined by “and” are separate entries in the source; they are usually repeats but may differ in a detail not shown here. Equal entries are not always repeated.

Biological target: plate-bound HA
Assay: ELISA

With “NKp30-Fc: long (canonical) ectodomain of NKp30 fused to the Fc portion of human IgG1 (from UniProt O14931 19-135) (Fc fusion)” the fold stronger ELISA labeling than NKp46-Fc was 1.5 fold and 2 fold.
